In this test the target is T1, AFP p26 (human, UniProt P02771 381-609).
T1 construct: The construct used is not described
T1 sequence: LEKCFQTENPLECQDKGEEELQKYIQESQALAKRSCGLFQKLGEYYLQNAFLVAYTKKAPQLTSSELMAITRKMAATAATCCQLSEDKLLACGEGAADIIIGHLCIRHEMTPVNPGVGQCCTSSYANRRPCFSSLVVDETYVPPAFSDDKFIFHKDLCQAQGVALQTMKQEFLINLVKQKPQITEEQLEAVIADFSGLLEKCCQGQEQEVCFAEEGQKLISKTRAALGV
The test can be described thus: phage ELISA, A450 target/A450 IgG1-Fc. The method, boiled down:
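Using VCSM13 helper phage, phage were rescued in 96-well format from single phagemid colonies taken from panning output. Wells were coated with 1.3 microg/ml goat anti-human IgG1-Fc antibody and captured 5 nM recombinant human target or IgG1-Fc before 50 microl of 5×-diluted phage were added, with binding read at 450 nm via HRP-conjugated anti-M13 antibody. Each clone's ELISA ratio is its target-to-IgG1-Fc absorbance, averaged across all screened wells with that clone.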
A general note: ELISA stands for enzyme-linked immunosorbent assay.

B1: SEQ ID NO 790 (designed binder)
chain: MGSWAEFSDRLNAIDQRLWALGGSEAELAAFEKEIAAFESELQAYKGKGNPEVEILREHAAEIRKFLQAYRHN
For the molecule B1, the ELISA_avg turned out to be 25.3 ratio.

B2: SEQ ID NO 791 (designed binder)
chain: MGSWMEFNHRLQAIDGRLWALGGSEAELAAFEKEIAAFESELQAYKGKGNPEVEMLREHAAAIRAFLQAYRHN
The molecule B2 registered an ELISA_avg of 33.4 ratio.

B3: SEQ ID NO 819 (designed binder)
chain: MGSWHHFKYFLADIKSILEALGGSEAELAIFEVQIAYFEDLLQSYKGKGNPEVEALRKEAAAIRDELQAYRHN
B3 displayed an ELISA_avg of 8 ratio.

B4: SEQ ID NO 812 (designed binder)
chain: MGSWFEFSNRLYAIWHRLTALGGSEAELAAFEKEIAAFESELQAYKGKGNPEVESLRTQAAFIRILLQAYRHN
With B4, the ELISA_avg was determined as 15.2 ratio.

B5: SEQ ID NO 814 (designed binder)
chain: MGSWFEFEDRLFAIWTRLEALGGSEAELAAFEKEIAAFESELQAYKGKGNPEVESLRQSAASIRWLLQAYRHN
B5 had an ELISA_avg of 10.9 ratio.

B6: SEQ ID NO 813 (designed binder)
chain: MGSWFEFSDRLYAIWERLDALGGSEAELAAFEKEIAAFESELQAYKGKGNPEVESLRFQAAFIRYQLQAYRHN
In the case of B6, the ELISA_avg was found to be 19 ratio.

B7: SEQ ID NO 815 (designed binder)
chain: MGSWHEFSERLFAIWTRLEALGGSEAELAAFEKEIAAFESELQAYKGKGNPEVEALRQSAAFIRVMLQAYRHN
For the molecule B7, the ELISA_avg turned out to be 8.21 ratio.

B8: SEQ ID NO 817 (designed binder)
chain: MGSWYEFDHRLMAISFRLVALGGSEAELAAFEKEIAAFESELQAYKGKGNPEVETLRRRAANIRHLLQAYRHN
With B8, the ELISA_avg turned out to be 20.1 ratio.

B9: SEQ ID NO 811 (designed binder)
chain: MGSWHEFYDRLYAIWDRLDALGGSEAELAAFEKEIAAFESELQAYKGKGNPEVEGLRNAAAVIRIFLQAYRHN
In turn, B9 came in with an ELISA_avg of 22.9 ratio.

B10: SEQ ID NO 818 (designed binder)
chain: MGSWSIFKYHLADIKLLLEALGGSEAELAYFEFLIADFEFTLQDYKGKGNPEVEALRKEAAAIRDELQAYRHN
In turn, B10 yielded an ELISA_avg of 20.2 ratio.

B11: SEQ ID NO 805 (designed binder)
chain: MGSWYEFYDRLDAIEDRLFALGGSEAELAAFEKEIAAFESELQAYKGKGNPEVESLRDQAAYIRTWLQAYRHN
The molecule B11 came in with an ELISA_avg of 31.9 ratio.

B12: SEQ ID NO 810 (designed binder)
chain: MGSWSEFTDRLFAIEDRLLALGGSEAELAAFEKEIAAFESELQAYKGKGNPEVEDLRMHAASIRLWLQAYRHN
As to B12, the ELISA_avg came to 25.4 ratio.

B13: SEQ ID NO 809 (designed binder)
chain: MGSWVEFYHRLDAIFDRLDALGGSEAELAAFEKEIAAFESELQAYKGKGNPEVEELRANAAGIRSWLQAYRHN
The molecule B13 had an ELISA_avg of 20 ratio.

B14: SEQ ID NO 806 (designed binder)
chain: MGSWHEFWVRLEAIESRLFALGGSEAELAAFEKEIAAFESELQAYKGKGNPEVESLRVQAAHIRSWLQAYRHN
B14 displayed an ELISA_avg of 26.9 ratio.

B15: SEQ ID NO 807 (designed binder)
chain: MGSWVEFYHRLEAIEQRLMALGGSEAELAAFEKEIAAFESELQAYKGKGNPEVESLREQAAAIRSWLQAYRHN
B15 registered an ELISA_avg of 28.5 ratio.

B16: SEQ ID NO 808 (designed binder)
chain: MGSWVEFYERLNAIEYRLEALGGSEAELAAFEKEIAAFESELQAYKGKGNPEVESLREHAAYIRQWLQAYRHN
As for B16, the ELISA_avg was determined as 28.7 ratio.

B17: SEQ ID NO 816 (designed binder)
chain: MGSWGEFTVRLYAIDRRLDALGGSEAELAAFEKEIAAFESELQAYKGKGNPEVEELRRFAAIIRAFLQAYRHN
As for B17, the ELISA_avg was 8.54 ratio.

Values taken from patent US20230125550A1 (ARCELLX, published 2023).
